# Results from patent US11578136B2, “Compositions and methods for treating cancer” (INNATE PHARMA, priority 2017, dated 2023).
# Assays:
# [1] = biological target: T1, CHO cells expressing human CD39 (Homo sapiens, UniProt P49961); assay: Antibody titration on CHO-huCD39 by flow cytometry; format: binding; details: result in words
# T1 construct: expressed in transfected cells; host or cells: CHO cells
# T1 sequence (P49961 1-510): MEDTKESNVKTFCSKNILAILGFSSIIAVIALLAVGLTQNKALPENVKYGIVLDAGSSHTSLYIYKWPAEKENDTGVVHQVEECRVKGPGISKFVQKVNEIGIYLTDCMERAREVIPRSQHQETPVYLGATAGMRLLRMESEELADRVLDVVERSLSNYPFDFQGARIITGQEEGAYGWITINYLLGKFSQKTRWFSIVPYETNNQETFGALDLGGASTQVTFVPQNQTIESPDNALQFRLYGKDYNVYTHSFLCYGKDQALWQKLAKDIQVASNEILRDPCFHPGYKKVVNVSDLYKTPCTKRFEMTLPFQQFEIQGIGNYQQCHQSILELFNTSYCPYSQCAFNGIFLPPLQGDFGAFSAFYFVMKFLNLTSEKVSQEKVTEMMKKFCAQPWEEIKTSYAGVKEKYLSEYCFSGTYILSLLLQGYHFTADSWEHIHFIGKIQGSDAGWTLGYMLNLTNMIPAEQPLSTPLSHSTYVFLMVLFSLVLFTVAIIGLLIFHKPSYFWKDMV
# Method: (§1) Antibody I-394 was tested in two repeated experiments for binding to CHO cells expressing human CD39, CHO cells expressing cynomolgus (Macaca fascicularis) CD39, CHO cells expressing murine CD39, and human Ramos lymphoma cells (ATCC™, reference CRL-1596). Cells were incubated with various concentration of unlabeled anti-CD39 antibody from 30 μg/ml to 5×10^−4 μg/ml, for 30 minutes at 4° C. After washes, cells were incubated with Goat anti-mouse H+L labeled secondary antibody for 30 min at 4° C.
# [2] = biological target: T2, CHO cells expressing murine CD39 (Mus musculus, UniProt P55772); assay: Antibody titration on CHO-moCD39 by flow cytometry; format: binding; details: result in words
# T2 construct: expressed in transfected cells; host or cells: CHO cells
# T2 sequence (P55772 1-510): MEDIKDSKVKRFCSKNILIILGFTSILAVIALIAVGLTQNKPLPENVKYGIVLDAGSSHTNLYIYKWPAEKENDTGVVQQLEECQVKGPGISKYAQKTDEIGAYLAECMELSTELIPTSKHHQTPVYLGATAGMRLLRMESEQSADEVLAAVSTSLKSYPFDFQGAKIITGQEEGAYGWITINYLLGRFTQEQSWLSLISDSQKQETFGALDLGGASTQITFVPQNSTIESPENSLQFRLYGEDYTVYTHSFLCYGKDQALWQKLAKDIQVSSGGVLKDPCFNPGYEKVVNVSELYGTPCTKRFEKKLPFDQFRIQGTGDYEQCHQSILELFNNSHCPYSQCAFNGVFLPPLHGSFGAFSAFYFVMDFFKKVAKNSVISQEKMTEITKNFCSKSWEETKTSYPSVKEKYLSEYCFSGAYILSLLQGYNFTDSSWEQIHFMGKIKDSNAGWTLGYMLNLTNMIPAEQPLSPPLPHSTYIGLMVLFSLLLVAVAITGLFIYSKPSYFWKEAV
# Method: as §1
# [3] = biological target: T3, CD39 expressed by Ramos human lymphoma cells (Homo sapiens, UniProt P49961); assay: Inhibition of the enzymatic activity of cellular CD39 in Ramos cells (Cell Titer Glo); format: cell-based
# T3 construct: host or cells: Ramos human lymphoma cells
# T3 sequence (P49961 1-510): T1 sequence (P49961 1-510)
# Method: (§2) The inhibition of the CD39 enzymatic activity in CD39-expressing cells by antibodies was evaluated using Cell Titer Glo™ (Promega, reference G7571) that allows assessment of ATP hydrolysis through use of a reagent that generates a luminescent signal proportional to the amount of ATP present. The assay was thus designed to permit assessment of the inhibition of ATP hydrolyzed by CD39 in the cell culture supernatant. Briefly, 5×10^4 Ramos human lymphoma cells, 5×10^3 human CD39-, cynomolgus CD39- and mouse CD39-expressing CHO cells, were incubated 1 hour at 37° C. with anti-CD39 antibodies from 30 μg/ml to […]. Cells were then incubated with 20 μM ATP for 1 additional hour at 37° C. Plates were centrifuged for 2 min at 400 g and 50 μl cell supernatant are transferred in a luminescence microplate (white wells). 50 μl CellTiter-Glo® Reagent (CTG) was added to the supernatant and emitted light was quantified after a 5 min incubation in the dark using a Enspire™ luminometer. Anti-CD39 antibody efficacy was determined by comparing emitted light in presence of antibody with ATP alone (maximal light emission) and ATP together with cells (minimal light emission).
# (§3) The inhibition by antibody I-394 of the ATPase activity of CD39 in CD39-expressing cells was evaluated using the assay used for inhibition of the enzymatic activity of cellular CD39 as described above (Methods).
# [4] = biological target: T4, human CD39-expressing CHO cells (CHO-huCD39) (Homo sapiens, UniProt P49961); assay: Inhibition of the enzymatic activity of cellular CD39 in CHO-huCD39; format: cell-based; details: result in words
# T4 construct: expressed in transfected cells; host or cells: CHO cells
# T4 sequence (P49961 1-510): T1 sequence (P49961 1-510)
# Method: as §2, §3
# [5] = biological target: T5, Human CD39-L3 (NTPDase3, ENTPD3) (Homo sapiens, UniProt O75355); assay: ELISA titration on CD39-L3; format: binding; details: result in words
# T5 sequence (O75355 1-529): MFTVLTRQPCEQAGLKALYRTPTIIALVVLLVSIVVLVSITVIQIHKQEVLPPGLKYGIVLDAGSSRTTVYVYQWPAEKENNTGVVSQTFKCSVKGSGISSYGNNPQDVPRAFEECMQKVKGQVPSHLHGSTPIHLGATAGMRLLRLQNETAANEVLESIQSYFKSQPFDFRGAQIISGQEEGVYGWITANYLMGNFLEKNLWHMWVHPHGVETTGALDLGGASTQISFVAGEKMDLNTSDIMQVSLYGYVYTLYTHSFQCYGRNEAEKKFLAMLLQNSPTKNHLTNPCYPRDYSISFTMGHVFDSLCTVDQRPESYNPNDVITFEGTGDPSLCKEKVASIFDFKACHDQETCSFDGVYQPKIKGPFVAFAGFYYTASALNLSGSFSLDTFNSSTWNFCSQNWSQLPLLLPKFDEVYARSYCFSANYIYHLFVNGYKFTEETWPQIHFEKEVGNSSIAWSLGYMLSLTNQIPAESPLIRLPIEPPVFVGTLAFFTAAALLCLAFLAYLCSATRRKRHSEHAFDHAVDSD
# Method: Antibody I-394 was tested for binding to recombinant human CD39 isoforms (Rec-huCD39 isoforms) having amino acid sequences shown below were coated in 96-well plate in PBS 1× at 500 ng/ml or 1 μg/ml at 4° C. overnight. Wells were washed in TBS Tween 20, and further saturated 2H at RT in TBS Blocking buffer. Dose range concentration of primary antibody was incubated in TBS blocking buffer for 2 h at RT. Wells were washed in TBS Tween 20. […] Optical density was measured on Enspire™ at OD=450.
substance,measurement,setting,value
"I-394: anti-CD39 antibody, VH SEQ ID NO: 6, VL SEQ ID NO: 7; human IgG1 Fc with L234A/L235E/G237A/A330S/P331S",binding to cells expressing human CD39 (CHO-huCD39),[1],bound
same,binding to cells expressing murine CD39 (CHO-moCD39),[2],not
same,potency at blocking CD39 in Ramos cells compared to all other antibodies tested,[3],greater potency
same,"maximum inhibition achieved, cellular CD39",[3]; Ramos cells,81.6%
same,blocking CD39 enzymatic activity in tumor (Ramos) cells,[3]; result in words,highly potent
same,blocking CD39 enzymatic activity in CHO-huCD39,[4],blocks
same,binding to CD39-L3 in ELISA,[5],not
